Results as given in the supplement of paper PMC10126150.
± gives the standard deviation of the averaged measurements.

Test system: ATP
Experiment: switch fluorescence ratio, 500 uM ATP over buffer (Cy3 cluster intensity, sum of 5 cycles each) (fold (ratio)); higher = stronger signal-on switching upon ATP binding; sequences stand for … in TCGTCGGCAGCGTCAGATGTGTATAAGAGACAGTTTTTTTTTTTTTTTTTTTTTTTTT…TC
Conditions: aptamer strand: ATP DNA aptamer (quencher-CACCTGGGGGAGTATTGCGGAGGAAGG + anchor), 100 nM annealed; ATP concentration: 500 uM
In short: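 Clusters with intensities outside 100-1000 RFU were excluded. The remaining Cy3-labelled switching-strand clusters on a modified Illumina MiSeq flow-cell had been annealed to 100 nM quencher-labelled ATP aptamer and imaged in selection buffer, then after 15 min with 500 uM ATP at 22 °C, for five cycles separated by NaOH stripping and re-annealing. The fluorescence ratio, averaged per switch-domain sequence, is each cluster's summed target-cycle Cy3 intensity over its summed buffer-cycle Cy3 intensity.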
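Note: ATP exposure 15 min at 22 °C before imaging.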

GGGAGGCTCG gave a switch fluorescence ratio of 1 ± 0.0082.
GGGAGGGGAG gave a switch fluorescence ratio of 0.981 ± 0.019.
GGGAGGGGTT was tested, and the switch fluorescence ratio was 1.01 ± 0.04.
GGGAGGGTTG gave a switch fluorescence ratio of 0.981 ± 0.031.
Sequence GGGAGGTATT has a switch fluorescence ratio of 0.99676 ± 0.00098.
With GGGAGTGAGA the switch fluorescence ratio was 1.03 ± 0.035.
In the case of GGGAGTGAGG, the switch fluorescence ratio is reported as 1.01 ± 0.011.
For GGGATAAGAA, the switch fluorescence ratio was 0.992 ± 0.02.
GGGATAGGCT gave a switch fluorescence ratio of 1.02 ± 0.021.
For GGGATATAAT, the switch fluorescence ratio was 1.02 ± 0.022.
GGGATATGTT was tested, and the switch fluorescence ratio was 0.9921 ± 0.0071.
GGGATCATTA was tested, and the switch fluorescence ratio was 0.983 ± 0.02.
GGGATCCTCC was tested, and the switch fluorescence ratio was 1.027 ± 0.006.
GGGATCGGGA was tested, and the switch fluorescence ratio was 0.995 ± 0.013.
In the case of GGGATCGTAA, the switch fluorescence ratio is reported as 0.987 ± 0.016.
In the case of GGGATCGTTG, the switch fluorescence ratio is reported as 0.965 ± 0.017.
GGGATCTGAA was tested, and the switch fluorescence ratio was 0.969 ± 0.026.
In the case of GGGATCTTGA, the switch fluorescence ratio is reported as 1.07 ± 0.051.
GGGATGAATA was tested, and the switch fluorescence ratio was 0.982 ± 0.042.
GGGATGACGG showed a switch fluorescence ratio of 0.975 ± 0.036.
GGGATGAGAG gave a switch fluorescence ratio of 1 ± 0.04.
GGGATGAGGA gave a switch fluorescence ratio of 0.9848 ± 0.0044.
For GGGATGCGG, the switch fluorescence ratio was 0.9609 ± 0.0064.
Sequence GGGATGGCAG has a switch fluorescence ratio of 0.9816 ± 0.0059.
Sequence GGGATGGCTG has a switch fluorescence ratio of 1.01 ± 0.055.
For GGGATGGGAT, the switch fluorescence ratio was 0.978 ± 0.037.
GGGATGGGGA was tested, and the switch fluorescence ratio was 1.02 ± 0.032.
GGGATGGGTT gave a switch fluorescence ratio of 0.989 ± 0.025.
In the case of GGGATGGTTT, the switch fluorescence ratio is reported as 0.988 ± 0.028.
Sequence GGGATTAGAT has a switch fluorescence ratio of 0.982 ± 0.013.
GGGATTATAT gave a switch fluorescence ratio of 1.02 ± 0.032.
In the case of GGGATTATGT, the switch fluorescence ratio is reported as 0.97 ± 0.015.
GGGATTCGCA showed a switch fluorescence ratio of 0.99 ± 0.053.
GGGATTCGGG was tested, and the switch fluorescence ratio was 1.02 ± 0.022.
GGGATTGCTA was tested, and the switch fluorescence ratio was 1.03 ± 0.012.
Sequence GGGATTGGTG has a switch fluorescence ratio of 0.995 ± 0.026.
GGGATTTGTA gave a switch fluorescence ratio of 1.02 ± 0.017.
For GGGCAAAAAA, the switch fluorescence ratio was 1.03 ± 0.073.
Sequence GGGCAAACTT has a switch fluorescence ratio of 1.02 ± 0.018.
Sequence GGGCAAAGGG has a switch fluorescence ratio of 0.999 ± 0.041.
In the case of GGGCAACTGA, the switch fluorescence ratio is reported as 1.01 ± 0.024.
GGGCAAGAGT was tested, and the switch fluorescence ratio was 1.03 ± 0.024.
For GGGCAAGGAG, the switch fluorescence ratio was 1.01 ± 0.02.
In the case of GGGCAAGTCA, the switch fluorescence ratio is reported as 1.02 ± 0.014.
For GGGCAATGCT, the switch fluorescence ratio was 3.33 ± 3.1.
Sequence GGGCACAGAA has a switch fluorescence ratio of 0.9751 ± 0.0022.
GGGCACGTCG was tested, and the switch fluorescence ratio was 0.9888 ± 0.0094.
For GGGCACTGGT, the switch fluorescence ratio was 1.04 ± 0.032.
In the case of GGGCAGAAAT, the switch fluorescence ratio is reported as 1.01 ± 0.048.
GGGCAGCGCA showed a switch fluorescence ratio of 0.99057 ± 0.00048.
GGGCAGCTCT gave a switch fluorescence ratio of 0.958 ± 0.016.
GGGCAGGCAC was tested, and the switch fluorescence ratio was 0.993 ± 0.018.
With GGGCAGGGAG the switch fluorescence ratio was 1 ± 0.017.
For GGGCATATTC, the switch fluorescence ratio was 1.155 ± 0.0089.
GGGCATGCAT gave a switch fluorescence ratio of 1.019 ± 0.0086.
In the case of GGGCATGGTG, the switch fluorescence ratio is reported as 1.05 ± 0.025.
GGGCATGTAC gave a switch fluorescence ratio of 1.57 ± 0.15.
GGGCATTTAG gave a switch fluorescence ratio of 1.03 ± 0.092.
GGGCCAACGA showed a switch fluorescence ratio of 1.042 ± 0.0014.
For GGGCCAAGGA, the switch fluorescence ratio was 1.01 ± 0.02.
GGGCCCATA showed a switch fluorescence ratio of 0.982 ± 0.028.
GGGCCCGCAA gave a switch fluorescence ratio of 5.05 ± 0.21.
With GGGCCCGGTT the switch fluorescence ratio was 1.005 ± 0.0068.
Sequence GGGCCCTTAC has a switch fluorescence ratio of 1.11 ± 0.06.
In the case of GGGCCGCGCT, the switch fluorescence ratio is reported as 0.942 ± 0.039.
Work on GGGCCGGTTG yielded a switch fluorescence ratio of 0.995 ± 0.017.
Sequence GGGCCTGGAG has a switch fluorescence ratio of 1.012 ± 0.0086.
In the case of GGGCGAAATG, the switch fluorescence ratio is reported as 1.32 ± 0.28.
GGGCGCAAGG showed a switch fluorescence ratio of 1.02 ± 0.029.
Work on GGGCGCCATC yielded a switch fluorescence ratio of 1.01 ± 0.016.
In the case of GGGCGCGGTG, the switch fluorescence ratio is reported as 1.06 ± 0.081.
GGGCGCTTCT showed a switch fluorescence ratio of 0.9913 ± 0.0072.
Sequence GGGCGGATGG has a switch fluorescence ratio of 0.986 ± 0.018.
GGGCGGCGGC showed a switch fluorescence ratio of 0.988 ± 0.0099.
Work on GGGCGGCTGC yielded a switch fluorescence ratio of 0.955 ± 0.03.
For GGGCGGCTGT, the switch fluorescence ratio was 1 ± 0.033.
For GGGCGGGGGA, the switch fluorescence ratio was 1.06 ± 0.079.
GGGCGGTATA gave a switch fluorescence ratio of 0.986 ± 0.025.
Sequence GGGCGGTCGG has a switch fluorescence ratio of 1 ± 0.03.
GGGCGTAAAA was tested, and the switch fluorescence ratio was 1.07 ± 0.023.
GGGCGTCGGT showed a switch fluorescence ratio of 0.984 ± 0.015.
Sequence GGGCGTTTTT has a switch fluorescence ratio of 0.992 ± 0.017.
GGGCTAAAAC gave a switch fluorescence ratio of 0.971 ± 0.035.
Work on GGGCTATGTA yielded a switch fluorescence ratio of 0.993 ± 0.0095.
Work on GGGCTGAGGG yielded a switch fluorescence ratio of 0.988 ± 0.029.
GGGCTGTTGC showed a switch fluorescence ratio of 1.08 ± 0.13.
GGGCTTATGA was tested, and the switch fluorescence ratio was 1.018 ± 0.0044.
Work on GGGCTTGAAG yielded a switch fluorescence ratio of 1.01 ± 0.017.
GGGCTTGTAT showed a switch fluorescence ratio of 1.03 ± 0.014.
GGGCTTGTCC showed a switch fluorescence ratio of 0.98 ± 0.043.
With GGGCTTTACG the switch fluorescence ratio was 1.01 ± 0.011.
With GGGCTTTATG the switch fluorescence ratio was 0.986 ± 0.023.
GGGCTTTTCG was tested, and the switch fluorescence ratio was 0.992 ± 0.024.
Work on GGGGAAACGA yielded a switch fluorescence ratio of 0.9987 ± 0.0015.
GGGGAAAGAG gave a switch fluorescence ratio of 1 ± 0.017.
With GGGGAAAGCG the switch fluorescence ratio was 1 ± 0.026.
With GGGGAAATTA the switch fluorescence ratio was 1.02 ± 0.012.
GGGGAACGGT gave a switch fluorescence ratio of 1.03 ± 0.012.
For GGGGAAGAAG, the switch fluorescence ratio was 0.969 ± 0.02.
GGGGAAGCCT showed a switch fluorescence ratio of 1.07 ± 0.03.
GGGGAAGCGG gave a switch fluorescence ratio of 0.991 ± 0.056.
For GGGGAAGGGG, the switch fluorescence ratio was 1.03 ± 0.058.
For GGGGAAGTTT, the switch fluorescence ratio was 0.998 ± 0.027.
In the case of GGGGAATTTG, the switch fluorescence ratio is reported as 1.01 ± 0.041.
In the case of GGGGACAATG, the switch fluorescence ratio is reported as 1.02 ± 0.044.
GGGGACACGG was tested, and the switch fluorescence ratio was 1.03 ± 0.016.
In the case of GGGGACAGAT, the switch fluorescence ratio is reported as 0.991 ± 0.017.
Work on GGGGACGAGC yielded a switch fluorescence ratio of 0.999 ± 0.027.
Sequence GGGGACGATG has a switch fluorescence ratio of 0.996 ± 0.019.
For GGGGACGTAC, the switch fluorescence ratio was 1.47 ± 0.22.
GGGGACGTAT gave a switch fluorescence ratio of 1.01 ± 0.019.
With GGGGACGTTT the switch fluorescence ratio was 1.03 ± 0.043.
GGGGACTAGG gave a switch fluorescence ratio of 0.982 ± 0.058.
For GGGGACTAGT, the switch fluorescence ratio was 0.957 ± 0.043.
In the case of GGGGACTGCA, the switch fluorescence ratio is reported as 1.03 ± 0.049.
GGGGAGAAAC gave a switch fluorescence ratio of 1.08 ± 0.042.
GGGGAGAACT showed a switch fluorescence ratio of 0.992 ± 0.016.
Work on GGGGAGAAGA yielded a switch fluorescence ratio of 0.9662 ± 0.005.
Work on GGGGAGACGA yielded a switch fluorescence ratio of 1.04 ± 0.022.
GGGGAGAGAC showed a switch fluorescence ratio of 1.04 ± 0.041.
GGGGAGCCGT gave a switch fluorescence ratio of 1.03 ± 0.086.
GGGGAGGAAG was tested, and the switch fluorescence ratio was 0.997 ± 0.012.
Work on GGGGAGGCCC yielded a switch fluorescence ratio of 0.998 ± 0.031.
With GGGGAGGGAC the switch fluorescence ratio was 1.02 ± 0.053.
GGGGAGGGCC was tested, and the switch fluorescence ratio was 1.01 ± 0.032.
In the case of GGGGAGGGCG, the switch fluorescence ratio is reported as 0.967 ± 0.034.
GGGGAGGTAA was tested, and the switch fluorescence ratio was 0.973 ± 0.012.
In the case of GGGGAGTGAG, the switch fluorescence ratio is reported as 0.986 ± 0.017.
Sequence GGGGAGTTAT has a switch fluorescence ratio of 1.01 ± 0.0024.
GGGGATAAAA showed a switch fluorescence ratio of 1.01 ± 0.034.
For GGGGATACGT, the switch fluorescence ratio was 1 ± 0.021.
With GGGGATCCCC the switch fluorescence ratio was 1.03 ± 0.019.
In the case of GGGGATGGCT, the switch fluorescence ratio is reported as 0.992 ± 0.039.
Work on GGGGATGGTG yielded a switch fluorescence ratio of 1 ± 0.035.
GGGGATGGTT was tested, and the switch fluorescence ratio was 0.974 ± 0.03.
GGGGATTAAG showed a switch fluorescence ratio of 0.971 ± 0.033.
GGGGATTATA was tested, and the switch fluorescence ratio was 1.01 ± 0.015.
In the case of GGGGATTTGA, the switch fluorescence ratio is reported as 0.995 ± 0.029.
GGGGATTTGG gave a switch fluorescence ratio of 0.992 ± 0.018.
Sequence GGGGCAAAAA has a switch fluorescence ratio of 1.08 ± 0.12.
GGGGCAACGT gave a switch fluorescence ratio of 0.983 ± 0.012.
With GGGGCAATTT the switch fluorescence ratio was 1.04 ± 0.052.
In the case of GGGGCACCTC, the switch fluorescence ratio is reported as 1.04 ± 0.015.
For GGGGCAGCCA, the switch fluorescence ratio was 1.03 ± 0.038.
With GGGGCAGGCT the switch fluorescence ratio was 0.886 ± 0.18.
In the case of GGGGCAGGTA, the switch fluorescence ratio is reported as 1.04 ± 0.047.
GGGGCATGCA was tested, and the switch fluorescence ratio was 0.9897 ± 0.0081.
With GGGGCATGGA the switch fluorescence ratio was 0.95 ± 0.018.
In the case of GGGGCATGGT, the switch fluorescence ratio is reported as 1.01 ± 0.018.
GGGGCCAAAA was tested, and the switch fluorescence ratio was 0.947 ± 0.11.
GGGGCCAGAA was tested, and the switch fluorescence ratio was 1.012 ± 0.0029.
For GGGGCCCCTC, the switch fluorescence ratio was 1.04 ± 0.092.
GGGGCCGAGA gave a switch fluorescence ratio of 0.987 ± 0.012.
